Assay results reported in US20190055322A1.
Values joined by “and” are separate entries in the source; they are usually repeats but may differ in a detail not shown here. Equal values may be shown once.

B1: Nanobody 256 (13F07-40GS-5H01) (VHH)
chain: EVQLVESGGGLVQAGGSLRLSCAASGNTFSTNPMYWYRQAEGKQRELVASISSRGITNYADSVRGRFSISRDNTKDTVYLQMNSLKPEDTAVYYCRLASLSSGTVYWGKGTLVTVSSGGGGSGGGGSGGGGSGGGGSGGGGSGGGGSGGGGSGGGGSEVQLVESGGGLVQPGGSLRLSCAASGSTLDYYAIGWFRQAPGKEREGVSCTSNSGSTYYGGSVKGRFTASRDNAKNTVYLQMNSLRPEDTAVYYCVATIGCATLGGTLDVQRYYYRGQGTLVTVSS
B2: Nanobody 257 (13F07-40GS-2B10) (VHH)
chain: EVQLVESGGGLVQAGGSLRLSCAASGNTFSTNPMYWYRQAEGKQRELVASISSRGITNYADSVRGRFSISRDNTKDTVYLQMNSLKPEDTAVYYCRLASLSSGTVYWGKGTLVTVSSGGGGSGGGGSGGGGSGGGGSGGGGSGGGGSGGGGSGGGGSEVQLVESGGGLVQPGGSLRLSCAASGSIFSINNMGWYRQAPGKQRELVTVVTSNLITTYADSVKGRFTISRDNAKNTVYLQMNSLKPEDTAVYYCNAWARSVGSVPYSQFWGQGTLVTVSS
B3: 5E02-40GS-1E11 (VHH)
chain: EVQLVESGGGLVQPGGSLRLSCAASGITLDSIAICWFRQAPGKEREGVSCSRGSDGSTYYADSVKGRFTISRVNAKNTVYLQMNSLKPEDTAVYYCAAAPSIFYSGGYFPSGMDYWGKGTQVTVSSGGGGSGGGGSGGGGSGGGGSGGGGSGGGGSGGGGSGGGGSEVQLVESGGGLVQPGGSLRLSCAASGSTRSVNPMAWFRQAPGRQREWVATISRSGYATYADSVKGRFTISGDNAKSSVYLQMNSLKPEDTAVYYCVTGTYWGQGTLVTVSS
B4: Nanobody 262 (7E09-40GS-7C10) (VHH)
chain: EVQLVESGGGLVQAGGSLRLSCAASGRTFSSYIMGWFRQAPGKAREFVADITWGQRPYYADSVKGRFTISRDNAKNTVYLEMNSLKPEDTAVYYCAADLGVVIREEHAYWGQGTLVTVSSGGGGSGGGGSGGGGSGGGGSGGGGSGGGGSGGGGSGGGGSEVQLVESGGGLVQAGGSLRLSCTASGRTLSSYTMGWFRQAPGTEREFVAAMTRSGFNTYYADSVKGRFTISRDSTENTMALQMSSLKPEDTAVYYCTAGRGLTSYRADYWGQGTLVTVSS
B5: Nanobody 064 (13F07-40GS-7C10) (VHH)
chain: EVQLVESGGGLVQAGGSLRLSCAASGNTFSTNPMYWYRQAEGKQRELVASISSRGITNYADSVRGRFSISRDNTKDTVYLQMNSLKPEDTAVYYCRLASLSSGTVYWGKGTLVTVSSGGGGSGGGGSGGGGSGGGGSGGGGSGGGGSGGGGSGGGGSEVQLVESGGGLVQAGGSLRLSCTASGRTLSSYTMGWFRQAPGTEREFVAAMTRSGFNTYYADSVKGRFTISRDSTENTMALQMSSLKPEDTAVYYCTAGRGLTSYRADYWGQGTLVTVSS
B6: 5E02-40GS-14E10 (VHH)
chain: EVQLVESGGGLVQPGGSLRLSCAASGITLDSIAICWFRQAPGKEREGVSCSRGSDGSTYYADSVKGRFTISRVNAKNTVYLQMNSLKPEDTAVYYCAAAPSIFYSGGYFPSGMDYWGKGTQVTVSSGGGGSGGGGSGGGGSGGGGSGGGGSGGGGSGGGGSGGGGSEVQLVESGGGLVQPGGSLRLSCAASGRIFSINTMGWYRQAPGKQRELVAGVTINAITNYADSVKGRFTISRDNAKNTVWLQMNSLKPEDTAVYYCHAWARSSGSAPYSQNWGQGTQVTVSS
B7: 3E10-40GS-5H01 (VHH)
chain: EVQLVESGGGLVQAGGSLRLSCTASGHTFSSYTMGWFRQAPGKEREFVAAMTRSGFNTHYSDSVKGRFTISRDNTSRDNTKITMALQMNSLKPEDTAVYYCTTGRGLTSYVANFWGQGTQVTVSSGGGGSGGGGSGGGGSGGGGSGGGGSGGGGSGGGGSGGGGSEVQLVESGGGLVQPGGSLRLSCAASGSTLDYYAIGWFRQAPGKEREGVSCTSNSGSTYYGGSVKGRFTASRDNAKNTVYLQMNSLRPEDTAVYYCVATIGCATLGGTLDVQRYYYRGQGTQVTVSS
B8: 1E11-40GS-4G10 (VHH)
chain: EVQLVESGGGLVQPGGSLRLSCAASGSTRSVNPMAWFRQAPGRQREWVATISRSGYATYADSVKGRFTISGDNAKSSVYLQMNSLKPEDTAVYYCVTGTYWGQGTLVTVSSGGGGSGGGGSGGGGSGGGGSGGGGSGGGGSGGGGSGGGGSEVQLVESGGGLVQAGGSLRLSCVISEDGVRNYDMGWFRQAPGKEREFVATINWSGGSTNYADSVKGRFTVSRDNAKNTMYLQMDSLKPEDTAVYYCVAAGFYNNYLRTAPNDWNDWGQGTQVTVSS
B9: Nanobody 115 (11B09-40GS-13F07) (VHH)
chain: EVQLVESGGGLVQAGGSLRLSCAASRLTFNHYNMGWFRQAPGKERERVAEVTWSGDKIYYVDSVKGRFTISRDNTPNPVYLYLQMNSLKPEDTAVYYCATAPRGLPYANGYWGQGTLVTVSSGGGGSGGGGSGGGGSGGGGSGGGGSGGGGSGGGGSGGGGSEVQLVESGGGLVQAGGSLRLSCAASGNTFSTNPMYWYRQAEGKQRELVASISSRGITNYADSVRGRFSISRDNTKDTVYLQMNSLKPEDTAVYYCRLASLSSGTVYWGKGTLVTVSS
B10: 4G10-40GS-7C10 (VHH)
chain: EVQLVESGGGLVQAGGSLRLSCVISEDGVRNYDMGWFRQAPGKEREFVATINWSGGSTNYADSVKGRFTVSRDNAKNTMYLQMDSLKPEDTAVYYCVAAGFYNNYLRTAPNDWNDWGQGTQVTVSSGGGGSGGGGSGGGGSGGGGSGGGGSGGGGSGGGGSGGGGSEVQLVESGGGLVQAGGSLRLSCTASGRTLSSYTMGWFRQAPGTEREFVAAMTRSGFNTYYADSVKGRFTISRDSTENTMALQMSSLKPEDTAVYYCTAGRGLTSYRADYWGQGTLVTVSS
B11: 1E11-40GS-14B10 (VHH)
chain: EVQLVESGGGLVQPGGSLRLSCAASGSTRSVNPMAWFRQAPGRQREWVATISRSGYATYADSVKGRFTISGDNAKSSVYLQMNSLKPEDTAVYYCVTGTYWGQGTLVTVSSGGGGSGGGGSGGGGSGGGGSGGGGSGGGGSGGGGSGGGGSEVQLVESGGGLVQPGGSLRLSCAASGRIFSINNMGWYHQAPGKQRELVATITMNGITTYADSVKGRFTISRDNAKNTVYLQMNSLKPEDTAVYYCSCWVRSSGGDPYRDYWGQGTQVTVSS
B12: 3E10-40GS-2B10 (VHH)
chain: EVQLVESGGGLVQAGGSLRLSCTASGHTFSSYTMGWFRQAPGKEREFVAAMTRSGFNTHYSDSVKGRFTISRDNTSRDNTKITMALQMNSLKPEDTAVYYCTTGRGLTSYVANFWGQGTQVTVSSGGGGSGGGGSGGGGSGGGGSGGGGSGGGGSGGGGSGGGGSEVQLVESGGGLVQPGGSLRLSCAASGSIFSINNMGWYRQAPGKQRELVTVVTSNLITTYADSVKGRFTISRDNAKNTVYLQMNSLKPEDTAVYYCNAWARSVGSVPYSQFWGQGTLVTVSS
B13: 1E11-40GS-5E02 (VHH)
chain: EVQLVESGGGLVQPGGSLRLSCAASGSTRSVNPMAWFRQAPGRQREWVATISRSGYATYADSVKGRFTISGDNAKSSVYLQMNSLKPEDTAVYYCVTGTYWGQGTLVTVSSGGGGSGGGGSGGGGSGGGGSGGGGSGGGGSGGGGSGGGGSEVQLVESGGGLVQPGGSLRLSCAASGITLDSIAICWFRQAPGKEREGVSCSRGSDGSTYYADSVKGRFTISRVNAKNTVYLQMNSLKPEDTAVYYCAAAPSIFYSGGYFPSGMDYWGKGTQVTVSS

biological target: different PcrV variants and reference strain PAO1 (23 PcrV sequence variants, GST-PcrV-His6); assay: not given

Row | Binder | EC50
1 | B1 | 0.07 nM and 0.1 nM
2 | B2 | 0.07 nM and 0.09 nM

biological target: PcrV of P. aeruginosa strain PA103 (on TTSS-induced bacteria) (Pseudomonas aeruginosa strain PA103); assay: cell-based or functional assay

Row | Binder | % inhibition in P3X63 cytotoxicity assay, extract 1/150 [%]
3 | B3 | 60
4 | B4 | 48
5 | B5 | 74
6 | B6 | 48
7 | B7 | 85
8 | B8 | 67
9 | B9 | 82
10 | B10 | 81
11 | B11 | 52
12 | B12 | 52
13 | B13 | 44
